The data set is described as follows: soluble on expression in E. coli; label from the status in PepcDB or PDB records.
As to “STVTQKNLFPYGDYLNSSQLHMEPDEVDTLREGEDPADRMHPYLAIYDLQPLKAHPLVFAPGVPVIAQVVGTERYTSGSKVGTCTLYSVRLTHGDFTWTTKKKFRHFQELHRDLQRHKVLMSLLPLARFAVTHSPAREAAAEDIPSLPRGGSEGSARHTASKQKYLENYLNRLLTMSFYRNYHAMTEFLEVSQLSFIPDLGSKGLEGVIRKRSGGHRVPGFTFCGRDQVCYRWSKRWLVVKDSFLLYMRPETGAISFVQLFDPGFEVQVGKRSTETRYGVRIDTSHRSLILKCSSYRQARWWGQEITELAQGSGRDFLQLHQHDSYAPPRPGTLARW”, the “soluble on expression in E. coli” value is “soluble”.
In the case of “MSLNPASMKYEDQEFVIFDVETTGLSSVYDTIIEIGAVKMKNGEVIDRFDKFINPHHPLSETTINLTSITDEMVQAADDEAVVIKQFMDFYGNDPLCGHNVQFDVGFVDAALKRCGYPEISQPVVDTLEVSRLLHPEQSRHTLDSLCRKYNVPLEHHHRANQDAEATGYLMFKLLDAFNDKYQEDDLGKMNDYSNGEGYKRARPTHITVLAQNQKPGLRNLYELVSLAGIKYNFKGLRTPKSELRRLHAGLLYGSACSQGEVFIAMMQKGYEEAKKKAEFYDFLEIQPPSNYSSLIADGLIADEAQLEEILTNIYKLGRELNKPVVATSDAHYIDKHEAIYRDVLLAAQRGNPNRNKQHPDLHFYTTQEMLDEFSFMGEDIAKEVVISNPNKINAMIDEGVQPVQDESFPPKIPHTAERVRKLTYDKAHELYGDPLPDNIQARLDRELDAIIGNGYGVVYLISQMLVAKSVKDGYLVGSRGSVGSSLVATMMGITEINPMPPHYRCPKCKQSEFFENGEYASGFDLPDKKCPDCQVMMVKDGQNIPFETFLGFHGDKVPDIDLNFSGDYQPVAHNFIRVMFGPNHSFKAGTVGTLADKKAIGYVKHYQDEHPEIKMNNAEVDRLAIGVTGVKATTGQHPAGIVVLPDDKDIYELTPLQYPSDDISKEWKTTHFDFHQIHDNLLKFDILGHQDPTMIRMLQDLSGIDPLTIPTDDPKVMSLFSSPEALGVTPEQINSKTGTLGLPEFGTPFVRGMLEETKPSTFAELLQISGLSHGTDVWLGNAEELINNGTCKLKNVIGCRDNIMTDLIRWGVKEEVAFSTMETVRKGKGISDENMAVLKENKNIPDWYIPSCLKIKYMFPKAHAAAYILMALRVAWFKVYYPEIYYAAYFSVRADKVDLEAMSRGKNTVVALINRIKEKGTAATKLEKDLQTYMELVNEAIERGINFKMVDINESEATTYKIVDKHTILAPFNAVDGLGDSAAKQIVAARSEAPFLSKEDLQVRGKVSQKIMDFFENNNVLEGMPDQNQLSLFEGHHHHHH” it was “soluble”.
In the case of “MGSDKIHHHHHHMFPDGEISDVVVIGGGPAGAICALALARAGVDVKLMYWGGYAPGGIELVSGRGRHFIEQYCPDFFSEVVHGIEIHETASLWDTAEPVIFNAMFNPWGAGVAIERSLLDGALRNLASGAGGTIIPDAKVVDVERQHDRWRLIARSSEDASSNETTSRAGEFAIYARFIVLATGRVPLPFFDHAPVAESSQIALMTSLQARIAPRHTLYVEGTRNGWWYALPAEKGYFASFCIGRNELKQRQSRLKDFFFQELQCTRLLAPLSAGAFDQRPIAGRMAGATMFPAMGGDAWIAVGDATAAPDPLSGTGIEWAIESAQLGADMLLEALHGSKGNVLFDLPRYENTIRRRIAAQEKTAAYHYHRLKEIRET” it was “not soluble”.
In the case of “MGSDKIHHHHHHMKPYIVAHMMSSLDGRSLTDGWHLDYASDLYETTAATFEADGWICGRVTMQEISHGKDYPAGLASGAVPRTDHFVERNADQYAISIDPQGRVAWKSNTALKSHVIEVLTEQVADDYLAYLQSIGVSYVFGGKTGIDLDKVVQTLARELGVKKLIVEGGSHVSGAFVNAGLVDEVSVLILPLVDGRSEHPSSFEVAMEKWQAPAYLKLTSVEKTDHDAVWLRYTKA” it was “not soluble”; in that of “MKLSGGVEWALHCCVVLSQAESPVPTARLAELHGVSKTYLAKHLQSLARAGLVHPTEGRDGGYVLTRAPEAITVLDVVQAVDGTEPAFRCTEIRRQGVLAAPPEQCRSACGIAKVMAGAEQAWRASLSSVTIADLGATIDLTVLKHILATSTT”, “not soluble”.
As to “MEITLNSGFKMPIIGLGVWRMEKEELRDLIIDAIKIGYRHLDCAANYKNEAEVGEALTEAFTTGLVKREDLFITTKLWSSDHGHVIEACKDSLKKLQLDYLDLFLVHIPIATKHTGIGTTDSALGDDGVLDIDTTISLETTWHDMEKLVSMGLVRSIGISNYDVFLTRDCLAYSKIKPAVNQIETHPYFQRDSLVKFCQKHGICVTAHTPLGGATANAEWFGTVSCLDDPVLKDVAEKYKQTVAQIVLRWGIQRNTVVIPKTSKPERLEENFQVFDFQLSKEDMEVIKSMERNYRTHQTAKFWGIELYA”, the “soluble on expression in E. coli” value is reported as “soluble”.
As for “MADPNGFLNYPRNDNPYRELAERIKDFAELQVPLSTEERQKQAARCMHCDVPFCHQGIFYGGKRAVSGCPNDNHIPEWNDLIYRGLQRKAYERLILTNPFPEFTGRVCPAPCEKSCAEALNGAGVTIKDNERFLGDLGNDEGWVAEIGKAAEPTGYKIAIIGSGPAGLSAAWRLNQLGHSVTVFEKSDRLGGLLMYGIPNMKLDKKVVQKRIDLMTELGVTFVTNTEIGKTISYEDLSVNFDRIILAIGAGIPRDLNISGREAVGIRFAIDFLTETTKTVLEEGEDNISQSLKGKKVVVIGGGDTGNDCIGTAVRLGAASVSQLEITPSLPTDRLDNNPWPEWPMTLRAGYGQKEAEFVGNTDLITYQMTATAFQTNAEGQLTGLKVAKVGPDFKALEGTEQVIEADLVLLAMGFVGTDTGLLDKFGIQEIYDDYRTNNDKVLVAGDARRGPSLVIWAIREGRKTAEIVDEQLIKVATALEHHHHHH”, the “soluble on expression in E. coli” value is listed as “soluble”.
In the case of “GPGSMKPATIPHGKNDAEGAGARMYEGMNTLQKEELNDYLISQMGPGTKWHDEMSDVVNTIIRQRSINGEPLDVHDVLSEALPHCQLAISHEVRDGLFRRIAGMCTTTDV” it was “soluble”; in that of “MGSDKIHHHHHHMIKVNRYEIFLDFSFQTGDYKGYEKIEMESDEETVVLDAVGLKIVKAKVNGKEIEFSQDESRVNVKSGSFSGILEVEFEGKVTERKLVGIYKASYKDGYVISTQFEATHARDFIPCFDHPAMKARFKLTVRVDKGLKVISNMPVVREKEENGKVVYEFDETPKMSTYLLYLGIGNFEEIRDEGKIPTIIVATIPGKVQKGRFSMQISRNSIEFYEKYFEIPYQLPKVHLIAIPEFAYGAMENWGAITFRETALLADDSSSVYQKFRVAEVVAHELAHQWFGNLVTLKWWDDLWLNESFATFMSHKAISQLFPSWNFWDYFVLNQTSRALEKDSVSTTHPIEAHVRDPNEVEQMFDDISYGKGASILRMIEAYVGEENFRRGVVNYLKKFSYSNAQGSDLWNSISEVYGSDISPIMADWITKPGYPMVRVSVSGKRVSLEQERFSLIGNVENLLYKIPLTMEVNGKVVTHLLDKERDTMVFEEDVKSLKVNVNRTGFYRVFYYNNSDLVFNSNLSELDKWGIINDYWAFLLAGKIGFKEYERVISKFFNDKDFLPVNELSNELFTLHAINPDKYQGIAKEFHRIQLKNWRNSKDELGRLTYSNILYRLAAIDDEFSLGLSELFRFYGSLDSDTRQGVAVAYAITYEDNSVDELLERFRKETFDEEKLRYLTAMLFFRKPYLVGNTLSLILSGEIKKQDIPLTLSTAAYNPYAKSAVLNWIKMHINFMREAYKGTGILGRRLAEVIPLIGIGAERETEQFFSNLNMPEAERGIGTGLELLKAYSRLK”, “not soluble”.
In the case of “MTPWLGLIVLLGSWSLGDWGAEACTCSPSHPQDAFCNSDIVIRAKVVGKKLVKEGPFGTLVYTIKQMKMYRGFTKMPHVQYIHTEASESLCGLKLEVNKYQYLLTGRVYDGKMYTGLCNFVERWDQLTLSQRKGLNYRYHLGCNCKIKSCYYLPCFVTSKNECLWTDMLSNFGYPGYQSKHYACIRQKGGYCSWYRGWAPPDKSIINATDP” it was “not soluble”.
In the case of “MGSDKIHHHHHHMYRLMDRQQMPFLFRFLSDSELYAFKDGQIISTFNKCGLFFCRKGNVEVSLEDKHFQINPGDVYIYMASTLVHLLHKSEDAEGVMVEVDLDYIIPIVNRVINVENQLFMRKHPCISLSDKQRAHLEYLLDNLRERIEAEDVQEVNLQQQRLTLELIKSMGQTFCYEILNMYFANQPMQPLPQNKKDVIFQNFMLALFRLYRKERDVAYYARMQHITPRYFSTIIKEKSGNSALQWIVQMVITEAKQLLEGSDLSIKEIADQLNFPTQSFFGKYFKQYVGISPKEYRKGKLRIKDGI” it was “not soluble”; in that of “SAAPSEVAAIAPGEGDGGGGGFGSWLDGRLEALGVDRAVYGAYILGILQEEEEEEKLDALQGILSAFLEEDSLLNICKEIVERWSETQNVVTKVKKEDEVQAIATLIEKQAQIVVKPRMVSEEEKQRKAALLAQYADVTDEEESLTEADEKDDSGATTMNIGSDKLLFRNTNVEDVLNARKLERDSLRDESQRKKEQDKLQRERDKLAKQERKEKEKKRTQRGERKR”, “soluble”.
In the case of “MGSDKIHHHHHHMLQIKRKINATQSLMKITRAMEMVARAKVRKIESEYQKFKPFYDEVKRLWALVPAESLDPIFFEEGNRDLIVVITSDMGLCGSFNSEILREAERVISESRDPHLILVGLKAINHFKDGKVLKMYDRFYEIPDFRNGSTIVEDILNFLDGKPARVRVIFSRFKNVLIQRPEVHELLPIKKEEKKREDFEYEPRLEQIAPLIFHYYLSATLMELMFQTKIGEYYARQNAMKNATDNAQEVIRELTLAYNKARQASITQELIEIVTGAEALKEIEK”, the “soluble on expression in E. coli” value was “not soluble”.
For “SLPWTVRTETCRMPFRIDPKKPFGDEIRRAGLELIDDAVTILRDQPSGSHEAVHDARKRFKRLRALYRLIRKVAPDFAREENTRFRDIARSLAFARDATALVETAEYLEAFAASDTQGEALRSVTVMLRERRDDALDHEAGLDEAIAAAIAGCEKGRERLEDLSLPDDLNKTARLVRTGWAKQRVKARKALSCCREQADVEHFHELRKAGQTYWMHLGLMRRLWPSAMRAKRADTKRLVDILGHEHDLSVLTAVADREPDRFGNGERLALLLAAIIERQQALRAEGLVLADEVFSESARTESRIVGLLWRQAAK”, the “soluble on expression in E. coli” value is “not soluble”.
In the case of “AKQAAQSTFNSFHEWAKQAEAMRNPSRMDIYKIYKQDAPHSHPMSDEQQEEFLHTLKALNGKNGIEVRTQDHDSVRNKKDRNLDKYIAESPDAKRFFYRIIPKHERREDKNQGRLTIGVQPQYATQLTRAMATLIGKESAITHGKVIGPACHGQMTDSAVLYINGDVAKAEKLGEKLKQMSGIPLDAFVEHTPLSMQSLSKGLSYAESILGDTRGHGMSRAEVISDALRMDGMPFLARLKLSLSANGYDPDNPALRNTK” it was “soluble”; in that of “GMSSNVSHFEGTRPVADQQRFDTEALEAWMRQHVEGFAGPLSVEQFKGGQSNPTFKLVTPGQTYVMRAKPGPKSKLLPSAHAIEREYRVMDALAGTDVPVAKMYALCEDESVIGRAFYIMEFVSGRVLWDQSLPGMSPAERTAIYDEMNRVIAAMHTVDYQAIGLGDYGKPGNYFQRQIERWTKQYKLSETESIPAMDSLMDWLPQHIPQEDADLTSIVHGDYRLDNLMFHPTEPRVLAVLDWELSTLGHPMGDFGYHCMSWHIAPGQFRGIAGLDHAALGIPDEASYRKLYEQRTGRPITGDWNFYLAFSMFRIAGILQGIMKRVVDGTASSAQALDAGKRARPMAEMGWEYAKKAKQ”, “soluble”; in that of “MGSDKIHHHHHHMEINGHEIQFKDNAVFLEENKILILADVHVGMEEFIRRNGVLFPLNEKKELLKRLKNLIVEFKPEKLVFLGDFLHHFQKVPYKVYETIRELNSLLKNYEIIVIRGNHDIMLEYILKENTNFKILDYLLENKILMIHGDKKFDIDFNFDLLIMGHEHPVLEINKQRFPSYLEIVQNDFKILVAPAFSNIASGVKINELESNFMSPYLKKVKKEDIFPIIIGEEVLKFPDLSKIEKFL”, “not soluble”.
